Measurements as given in PMC6168351 (Molecular cancer therapeutics, 2018).

Biological target: Human GPA33 (Novoprotein), recombinant (Homo sapiens (Human)., UniProt Q99795)
Experiment: SPR

Sequence of Human GPA33 (Novoprotein), recombinant (Q99795 22-235): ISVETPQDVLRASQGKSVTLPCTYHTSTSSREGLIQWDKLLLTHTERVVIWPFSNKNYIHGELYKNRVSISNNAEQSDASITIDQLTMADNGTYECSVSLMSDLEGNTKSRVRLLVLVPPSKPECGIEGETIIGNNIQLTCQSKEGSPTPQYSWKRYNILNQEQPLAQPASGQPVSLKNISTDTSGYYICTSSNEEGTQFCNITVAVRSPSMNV

B1: huA33 (humanized A33 antibody, selected clone), IgG1 (antibody, V domains shown)
VH: EVQLVESGGGLVKPGGSLRLSCAASGFAFSTYDMSWVRQAPGKRLEWVATISSGGSYTYYLDSVKGRFTISRDNAKNSLYLQMNSLRAEDTAVYYCAPTTVVPFAYWGQGTLVTVSS
VL: DIQMTQSQSSLSTSVGDRVTITCKASQNVRTVVAWYQQKPGKSPKTLIYLASNRHTGVPSRFSGSGSGTEFTLTISNVQPEDFADYFCLQHWSYPLTFGSGTKLEIK
Q: B1 was tested. Which Kd did it give?
A: 0.13 nM
